{
  "source": "paper doi:10.1101/2022.09.07.506877",
  "molecular_target": "Sb-gRAMP (type III-E CRISPR effector, Cas7-11);TPR-CHAT (caspase-like peptidase) (Candidatus \"Scalindua …, UniProt A0A0B0EGF3;A0A0B0EKL4 1-1717;1-716, |)",
  "assay": "cryo-EM structure",
  "data": [
    {"binder": "crRNA (37 nt) / target ssRNA (18 nt as modelled) (structured_RNA) RNA 1: GGACUUAAUGUCACGGUACCCAAUUUUCUGCCCCGGA RNA 2: UCCGGGGCAGAAAAUUGG", "values": [
      {"measurement": "binding result", "value": "binds"}
    ]}
  ]
}
